Measurements from PMC9825174.

Key:
Assay in all cases: EMSA
[1] = biological target: UV-DDB (DDB1-DDB2 heterodimer) (UniProt Q16531+Q92466); details: EMSA: 20 mM HEPES pH 7.5, 150 mM NaCl, 2 mM DTT (5 mM in AAG native PAGE), 5% glycerol, 0.5 mg/ml BSA, 8 nM DNA, room temperature 20-30 min, 5% native gel at …
[2] = biological target: AAG WT (MPG) (UniProt P29372); details: 60 nM AAG, 8 nM DNA, N20 of strand 1 = tetrahydrofuran abasic analogue (opposite T), EMSA: 20 mM HEPES pH 7.5, 150 mM NaCl, 2 mM DTT (5 mM in AAG native PAGE), 5% glycerol, 0.5 mg/ml BSA, room temperature 20-30 min, 5% native gel at …
[3] = biological target: AAG D80 EQ (catalytically dead) E125Q (UniProt P29372); details: 60 nM AAG D80 EQ, 8 nM DNA, text says THF, legend says ϵdA37, N20 of strand 1 = 1,N6-ethenoadenine (opposite T), EMSA: 20 mM HEPES pH 7.5, 150 mM NaCl, 2 mM DTT (5 mM in AAG native PAGE), 5% glycerol, 0.5 mg/ml BSA, room temperature 20-30 min, 5% native gel at …

Chain of UniProt Q16531 (Q16531 whole entry, chain 1 of 2): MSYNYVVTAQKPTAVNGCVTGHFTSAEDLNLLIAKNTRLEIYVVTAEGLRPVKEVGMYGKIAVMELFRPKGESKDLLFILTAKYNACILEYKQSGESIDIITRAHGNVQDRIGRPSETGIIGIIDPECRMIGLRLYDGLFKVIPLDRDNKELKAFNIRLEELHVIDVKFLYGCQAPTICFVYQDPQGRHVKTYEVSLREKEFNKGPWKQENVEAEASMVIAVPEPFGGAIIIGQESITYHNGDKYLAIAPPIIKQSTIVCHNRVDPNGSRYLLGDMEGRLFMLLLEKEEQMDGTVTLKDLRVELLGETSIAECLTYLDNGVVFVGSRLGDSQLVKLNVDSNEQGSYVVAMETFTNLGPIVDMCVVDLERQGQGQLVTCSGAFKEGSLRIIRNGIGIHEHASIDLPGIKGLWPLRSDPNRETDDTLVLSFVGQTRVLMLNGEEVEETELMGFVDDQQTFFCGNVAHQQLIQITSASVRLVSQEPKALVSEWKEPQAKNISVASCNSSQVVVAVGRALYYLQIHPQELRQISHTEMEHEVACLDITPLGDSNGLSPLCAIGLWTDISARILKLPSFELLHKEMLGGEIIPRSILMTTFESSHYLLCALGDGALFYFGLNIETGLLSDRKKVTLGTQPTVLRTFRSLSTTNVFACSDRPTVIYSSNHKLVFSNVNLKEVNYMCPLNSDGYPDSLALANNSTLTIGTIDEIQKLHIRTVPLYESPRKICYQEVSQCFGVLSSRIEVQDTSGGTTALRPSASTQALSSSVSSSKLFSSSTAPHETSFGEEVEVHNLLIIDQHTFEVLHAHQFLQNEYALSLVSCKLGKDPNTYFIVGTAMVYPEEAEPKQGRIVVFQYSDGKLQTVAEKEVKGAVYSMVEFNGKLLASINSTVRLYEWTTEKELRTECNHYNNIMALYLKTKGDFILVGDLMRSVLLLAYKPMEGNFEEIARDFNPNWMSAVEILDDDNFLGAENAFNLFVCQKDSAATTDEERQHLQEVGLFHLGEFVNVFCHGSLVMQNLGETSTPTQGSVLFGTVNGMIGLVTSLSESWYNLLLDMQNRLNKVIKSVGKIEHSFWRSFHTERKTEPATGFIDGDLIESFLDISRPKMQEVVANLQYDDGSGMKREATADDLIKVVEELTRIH
Chain of UniProt Q16531 (Q92466 whole entry, chain 2 of 2): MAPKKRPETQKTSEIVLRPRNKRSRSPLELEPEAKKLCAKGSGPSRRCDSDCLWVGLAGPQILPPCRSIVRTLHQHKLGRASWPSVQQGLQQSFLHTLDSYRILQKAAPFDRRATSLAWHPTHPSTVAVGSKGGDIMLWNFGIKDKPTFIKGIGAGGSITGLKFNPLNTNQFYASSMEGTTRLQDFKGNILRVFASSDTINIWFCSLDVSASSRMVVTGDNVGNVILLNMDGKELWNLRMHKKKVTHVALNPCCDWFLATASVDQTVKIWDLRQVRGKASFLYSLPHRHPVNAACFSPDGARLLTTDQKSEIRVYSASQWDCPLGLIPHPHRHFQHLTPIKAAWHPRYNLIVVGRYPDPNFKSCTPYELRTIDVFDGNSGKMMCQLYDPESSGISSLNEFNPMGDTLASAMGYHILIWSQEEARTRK

For “CCGAGTCATTCCTGCAGCGNGTCCATGGGAGTCAAAT / ATTTGACTCCCATGGACTCGCTGCAGGAATGACTCGG [Hx37 (Hx:T)]”, the Kd ([1]; N20 of strand 1 = hypoxanthine (deoxyinosine, opposite T)) was 8.6 nM.
With “CCGAGTCATTCCTGCAGCGNGTCCATGGGAGTCAAAT / ATTTGACTCCCATGGACTCGCTGCAGGAATGACTCGG [THF37]” the Kd ([1]; N20 of strand 1 = tetrahydrofuran abasic analogue (opposite T)) was 1.8 nM and the binding signal [2] was > 85 % DNA bound.
In the case of “CCGAGTCATTCCTGCAGCGNGTCCATGGGAGTCAAAT / ATTTGACTCCCATGGACTCGCTGCAGGAATGACTCGG [ϵdA37 (ϵA:T)]”, the Kd ([1]; N20 of strand 1 = 1,N6-ethenoadenine (opposite T)) is reported as 6 nM and the binding signal [3] is reported as > 85 % DNA bound.
For undamaged 37 bp duplex (UD), the Kd ([1]; no Mg2+, varies with preparation (32-42 nM)) was 31.8 nM.
